From patent US20140087993A1 (TUFTS MEDICAL CENTER, published 2014) come the findings set out here.

* marks the point of attachment. Palmitoyl = CCCCCCCCCCCCCCCC(=O)*

In assay [1] the target is T1, protease-activated receptor 1 (PAR1), on cells (human, UniProt P25116 42-425).
T1 sequence (looked up): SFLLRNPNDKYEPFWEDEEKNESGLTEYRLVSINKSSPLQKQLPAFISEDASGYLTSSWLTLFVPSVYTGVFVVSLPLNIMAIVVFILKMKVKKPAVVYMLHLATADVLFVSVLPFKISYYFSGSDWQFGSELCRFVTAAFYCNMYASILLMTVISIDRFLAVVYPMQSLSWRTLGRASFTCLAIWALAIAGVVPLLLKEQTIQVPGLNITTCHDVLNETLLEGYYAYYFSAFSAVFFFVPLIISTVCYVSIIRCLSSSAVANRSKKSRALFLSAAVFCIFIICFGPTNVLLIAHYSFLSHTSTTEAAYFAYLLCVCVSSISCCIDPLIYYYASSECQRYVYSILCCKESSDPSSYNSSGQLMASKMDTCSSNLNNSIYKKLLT
Nature of the assay: cell-based or functional assay.

The target of assay [2] is protease-activated receptor-2 (PAR2), wild type, on cells (human, UniProt P55085 37-397). Description: cell-based or functional assay.

B1: P1pal-10S (peptide)
peptide: Palmitoyl-NRSKKSSALF-NH2
SMILES: CCCCCCCCCCCCCCCC(=O)N[C@@H](CC(N)=O)C(=O)N[C@@H](CCCNC(=N)N)C(=O)N[C@@H](CO)C(=O)N[C@@H](CCCCN)C(=O)N[C@@H](CCCCN)C(=O)N[C@@H](CO)C(=O)N[C@@H](CO)C(=O)N[C@@H](C)C(=O)N[C@@H](CC(C)C)C(=O)N[C@@H](Cc1ccccc1)C(N)=O
Consider B1, for which, in assay [1], the “IC50, Ca++ mobilization by SFLLRN in human platelets” value (“IC50, Ca++ mobilization by SFLLRN” below) amounted to 0.7 µM and the “IC50, thrombin-induced ERK1/2 phosphorylation in A549 cells” value worked out at 0.8 µM.

B2: P1pal-i1-11 (peptide)
peptide: Palmitoyl-ILKMKVKKPAV-NH2
SMILES: CCCCCCCCCCCCCCCC(=O)N[C@H](C(=O)N[C@@H](CC(C)C)C(=O)N[C@@H](CCCCN)C(=O)N[C@@H](CCSC)C(=O)N[C@@H](CCCCN)C(=O)N[C@H](C(=O)N[C@@H](CCCCN)C(=O)N[C@@H](CCCCN)C(=O)N1CCC[C@H]1C(=O)N[C@@H](C)C(=O)N[C@H](C(N)=O)C(C)C)C(C)C)[C@@H](C)CC
On to B2, for which the “IC50, Ca++ mobilization by SFLLRN” value in assay [1] came to 1.3 µM.

B3: P2pal-14GQ (peptide)
peptide: Palmitoyl-GDENSEKKRKQAIK-NH2
SMILES: CCCCCCCCCCCCCCCC(=O)NCC(=O)N[C@@H](CC(=O)O)C(=O)N[C@@H](CCC(=O)O)C(=O)N[C@@H](CC(N)=O)C(=O)N[C@@H](CO)C(=O)N[C@@H](CCC(=O)O)C(=O)N[C@@H](CCCCN)C(=O)N[C@@H](CCCCN)C(=O)N[C@@H](CCCNC(=N)N)C(=O)N[C@@H](CCCCN)C(=O)N[C@@H](CCC(N)=O)C(=O)N[C@@H](C)C(=O)N[C@H](C(=O)N[C@@H](CCCCN)C(N)=O)[C@@H](C)CC
Turning to B3, in assay [2], the “IC50, calcium flux induced by 30 µM SLIGRL in SW620 cells” value was found to be 8000 µM.

For the molecule Palmitoyl-KKSRALF-NH2 [P1pal-7], in assay [1], the “IC50, Ca++ mobilization by SFLLRN” value was found to be 0.55 µM and the “IC50, thrombin-induced ERK1/2 phosphorylation in A549 cells” value amounted to 0.2 µM.

B4: P2pal-18S pepducin (peptide)
peptide: Palmitoyl-RSSAMDENSEKKRKSAIK-NH2
SMILES: CCCCCCCCCCCCCCCC(=O)N[C@@H](CCCNC(=N)N)C(=O)N[C@@H](CO)C(=O)N[C@@H](CO)C(=O)N[C@@H](C)C(=O)N[C@@H](CCSC)C(=O)N[C@@H](CC(=O)O)C(=O)N[C@@H](CCC(=O)O)C(=O)N[C@@H](CC(N)=O)C(=O)N[C@@H](CO)C(=O)N[C@@H](CCC(=O)O)C(=O)N[C@@H](CCCCN)C(=O)N[C@@H](CCCCN)C(=O)N[C@@H](CCCNC(=N)N)C(=O)N[C@@H](CCCCN)C(=O)N[C@@H](CO)C(=O)N[C@@H](C)C(=O)N[C@H](C(=O)N[C@@H](CCCCN)C(N)=O)[C@@H](C)CC
As for B4, the “calcium flux in SW620 cells, antagonist activity against SLIGRL” value in assay [2] came out at 77 % inhibition.

B5: P2pal-18Q (peptide)
peptide: Palmitoyl-RSSAMDENSEKKRKQAIK-NH2
SMILES: CCCCCCCCCCCCCCCC(=O)N[C@@H](CCCNC(=N)N)C(=O)N[C@@H](CO)C(=O)N[C@@H](CO)C(=O)N[C@@H](C)C(=O)N[C@@H](CCSC)C(=O)N[C@@H](CC(=O)O)C(=O)N[C@@H](CCC(=O)O)C(=O)N[C@@H](CC(N)=O)C(=O)N[C@@H](CO)C(=O)N[C@@H](CCC(=O)O)C(=O)N[C@@H](CCCCN)C(=O)N[C@@H](CCCCN)C(=O)N[C@@H](CCCNC(=N)N)C(=O)N[C@@H](CCCCN)C(=O)N[C@@H](CCC(N)=O)C(=O)N[C@@H](C)C(=O)N[C@H](C(=O)N[C@@H](CCCCN)C(N)=O)[C@@H](C)CC
As for B5, the “calcium flux in SW620 cells, antagonist activity against SLIGRL” value in assay [2] was 29 % inhibition.
